Binding score and fluorescence intensity above the median (sd above the median) data for one substance are collected here from publication PMC7065948.

Holding throughout (assay): peptide or protein array
The target of assay [1] is TTPESANL (TL8) (SIVmac251 strains).
For assay [2], the target named is Tat SL8 epitope (Tat 28-35) (SIVmac239).
Assay [3] concerns the target PTPESANL (PL8) (SIVsm (isolated from sooty mangabeys) strains).

For the substance “rhesus MHC class I Mamu-A1*001 complex (heavy chain with human β2 microglobulin) (from UniProt P61769 21-119)”, the values for the binding score in assay [1], in assay [2] and in assay [3] were 8.72, 8.33 and 6.28, respectively. For the same substance, the fluorescence intensity above the median (sd above the median) in assay [2] came to 7.15.
